Target: the molecule itself
Assay: SEC; analytical Superdex 200 Increase 10/300 GL; hPER2c dimer fraction treated with 20mM DTT for 36hrs; buffer 20mM Tris-base pH7.5, 50mM NaCl, 20mM DTT; calibrated with molecular weight standards

B1: human PERIOD-2 C-terminal domain (recombinant hPER2c, residues 1130 to 1252) (domain or fragment, UniProt O15055 1130-1252, looked up)
chain: CVLQDPIWLLMADADSSVMMTYQLPSRNLEAVLKEDREKLKLLQKLQPRFTESQKQELREVHQWMQTGGLPAAIDVAECVYCENKEKGNICIPYEEDIPSLGLSEVSDTKEDENGSPLNHRIE
notes: C-terminal domain of human PER2 (PERIOD-2), residues 1130 to 1252; Elutes from SEC as an aggregated form, 40mer, 20mer and dimer; The authors conclude that disulfide bonds stabilise the dimer; No tag removal is described; also called human PER2c; not shown: His tag (from the vector pCold I)
  stoichiometry N: 6
